Test results: doi:10.1101/2023.08.10.552651

What was measured:
[1] = biological target: sodium-dependent bicarbonate transporter SbtA (Synechocystis sp. PCC 6803); assay: cryo-EM structure
[2] = biological target: SbtB ΔT-loop (T-loop Arg43-Ser52 truncation variant of SbtB) (Synechocystis sp. PCC 6803); assay: cryo-EM structure

Row | Substance | stoichiometry N [1] | stoichiometry N [2]
1 | sodium-dependent bicarbonate transporter SbtA (natural protein) | 3 | 
2 | SbtB ΔT-loop (T-loop Arg43-Ser52 truncation variant of SbtB) (natural protein) |  | 3
